Assay [1] has as its target T1, recombinant biotinylated CD71 extracellular domain (Sino Biologics) with an N-terminal 6His tag (human, UniProt P02786 89-760, biotinylated (sites not given)).
T1 construct: extracellular domain; also called hCD71; huCD71
As to the kind of experiment: screening ELISA.

In assay [2] the target is T1, recombinant biotinylated CD71 …. In words: screening ELISA, ratio.

T1 sequence (P02786 other isoform, or with tags, fused parts or gaps): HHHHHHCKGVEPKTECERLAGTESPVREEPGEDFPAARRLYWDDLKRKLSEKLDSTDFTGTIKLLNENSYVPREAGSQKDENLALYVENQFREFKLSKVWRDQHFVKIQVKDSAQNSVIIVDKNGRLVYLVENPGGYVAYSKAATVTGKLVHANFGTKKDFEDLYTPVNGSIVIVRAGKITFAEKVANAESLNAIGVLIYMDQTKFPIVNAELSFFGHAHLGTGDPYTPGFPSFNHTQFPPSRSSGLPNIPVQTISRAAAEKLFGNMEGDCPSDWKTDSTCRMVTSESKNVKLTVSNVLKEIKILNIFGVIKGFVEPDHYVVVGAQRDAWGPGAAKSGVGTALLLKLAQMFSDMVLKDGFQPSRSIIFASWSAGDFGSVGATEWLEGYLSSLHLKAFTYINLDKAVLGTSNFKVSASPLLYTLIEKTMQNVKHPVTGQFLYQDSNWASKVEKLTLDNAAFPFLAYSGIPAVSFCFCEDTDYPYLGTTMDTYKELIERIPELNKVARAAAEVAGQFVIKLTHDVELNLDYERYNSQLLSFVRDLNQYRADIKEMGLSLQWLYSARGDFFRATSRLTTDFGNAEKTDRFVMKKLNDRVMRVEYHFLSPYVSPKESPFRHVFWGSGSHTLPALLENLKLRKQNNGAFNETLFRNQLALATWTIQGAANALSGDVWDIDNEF

B1: SEQ ID NO 240 (designed binder)
chain: MLPAPKNLVVSRVTEDSARLSWTAPDAAFDSFRIKYLEWWLGGEAIVLTVPGSERSYDLTGLKPGTEYWVDIQGVKGGVLSWPLSAIFTT
notes: FN3 domain
In the case of B1, the hCD71 in assay [1] is 3.03e+06. Besides, in assay [2], the “hCD71:HSA” value was found to be 1480.

B2: SEQ ID NO 279 (designed binder)
chain: MLPAPKNLVVSRVTEDSARLSWTAPDAAFDSFSIEYYESVGLGEAIVLTVPGSERSYDLTGLKPGTEYDVSIYGVKGGYLSRPLSAIFTT
notes: FN3 domain
B2: in assay [1], the hCD71 was 4.09e+06. For the same molecule, the “hCD71:HSA” value in assay [2] is 1300.

B3: SEQ ID NO 267 (designed binder)
chain: MLPAPKNLVVSRVTEDSARLSWTAPDAAFDSFPIVYSEIHVIGEAIVLTVPGSERSYDLTGLKPGTEYDVWIEGVKGGHLSEPLSAIFTT
notes: FN3 domain
As for B3, the hCD71 in assay [1] amounted to 1.97e+06. For the same molecule, in assay [2], the “hCD71:HSA” value is 166.

B4: SEQ ID NO 276 (designed binder)
chain: MLPAPKNLVVSRVTEDSARLSWTAPDAAFDSFRIDYLELTSLGEAIVLTVPGSERSYDLTGLKPGTEYPVPILGVKGGLSSWPLSAIFTT
notes: FN3 domain
As to B4, in assay [1], the hCD71 is 720000. The “hCD71:HSA” value in assay [2] was 58.

B5: SEQ ID NO 305 (designed binder)
chain: MLPAPKNLVVSRVTEDSARLSWTAPDAAFDSFEIDYDEPFVYGEAIVLTVPGSERSYDLTGLKPGTEYRVFIFGVKGGNGSWPLSAIFTT
notes: FN3 domain
Regarding B5, the hCD71 in assay [1] worked out at 1.21e+06. Besides, the “hCD71:HSA” value in assay [2] was 48.

B6: SEQ ID NO 283 (designed binder)
chain: MLPAPKNLVVSRVTEDSARLSWTAPDAAFDSFPIAYAEPRPDGEAIVLTVPGSERSYDLTGLKPGTEYSVLIHGVKGGLLSSPLSAIFTT
notes: FN3 domain
As for B6, the hCD71 in assay [1] came out at 2.95e+06. In addition, in assay [2], the “hCD71:HSA” value was 472.

B7: SEQ ID NO 287 (designed binder)
chain: MLPAPKNLVVSRVTEDSARLSWTAPDAAFDSFTIEYHESGPVGEAIVLTVPGSERSYDLTGLKPGTEYMVWIFGVKGGFVSRPLSAIFTT
notes: FN3 domain
As for B7, the hCD71 in assay [1] amounted to 3.88e+06. Besides, the “hCD71:HSA” value in assay [2] worked out at 706.

B8: SEQ ID NO 256 (designed binder)
chain: MLPAPKNLVVSRVTEDSARLSWTAPDAAFDSFHIVYHEPRPSGEAIVLTVPGSERSYDLTGLKPGTEYEVGIVGVKGGDLSVPLSAIFTT
notes: FN3 domain
Consider B8, for which the hCD71 in assay [1] is 1.98e+06. In addition, in assay [2], the “hCD71:HSA” value worked out at 900.

B9: SEQ ID NO 243 (designed binder)
chain: MLPAPKNLVVSRVTEDSARLSWTAPDAAFDSFAIPYYEWVNHGEAIVLTVPGSERSYDLTGLKPGTEYPVGIDGVKGGGPSWPLSAIFTT
notes: FN3 domain
For the molecule B9, the hCD71 in assay [1] turned out to be 2.4e+06. In addition, the “hCD71:HSA” value in assay [2] is 237.

B10: SEQ ID NO 285 (designed binder)
chain: MLPAPKNLVVSRVTEDSARLSWTAPDAAFDSFLIPYAETSPSGEAIVLTVPGSERSYDLTGLKPGTEYSVLIHGVKGGDYSSPLSAIFTT
notes: FN3 domain
Turning to B10, the hCD71 in assay [1] amounted to 2.44e+06. For the same molecule, in assay [2], the “hCD71:HSA” value came out at 1110.

B11: SEQ ID NO 304 (designed binder)
chain: MLPAPKNLVVSRVTEDSARLSWTAPDAAFDSFIITYWEHVGDGEAIVLTVPGSERSYDLTGLKPGTEYFVEIYGVKGGYLSKPLSAIFTT
notes: FN3 domain
Regarding B11, the hCD71 in assay [1] was 3.34e+06. In addition, the “hCD71:HSA” value in assay [2] was 1240.

B12: SEQ ID NO 250 (designed binder)
chain: MLPAPKNLVVSRVTEDSARLSWTAPDAAFDSFFIGYLEPYPPGEAIVLTVPGSERSYDLTGLKPGTEYAVEIAGVKGGLLSSPLSAISTT
notes: FN3 domain
As to B12, in assay [1], the hCD71 is 1.09e+06. For the same molecule, the “hCD71:HSA” value in assay [2] was determined as 58.

B13: SEQ ID NO 263 (designed binder)
chain: MLPAPKNLVVSRVTEDSARLSWTAPDAAFDSFFIGYLEPQPPGEAIVLTVPGSERSYDLTGLKPGTEYNVTIQGVKGGFPSMPLSAISTT
notes: FN3 domain
Turning to B13, the hCD71 in assay [1] was 1.88e+06. Also, the “hCD71:HSA” value in assay [2] was 92.

B14: SEQ ID NO 254 (designed binder)
chain: MLPAPKNLVVSRVTEDSARLSWTAPDAAFDSFFIPYAEPSPTGEAIVLTVPGSERSYDLTGLKPGTEYSVLIHGVKGGHLSDPLSAISTT
notes: FN3 domain
For the molecule B14, in assay [1], the hCD71 was 3.24e+06. Further, in assay [2], the “hCD71:HSA” value was 36.

B15: SEQ ID NO 251 (designed binder)
chain: MLPAPKNLVVSRVTEDSARLSWTAPDAAFDSFFIGYLEPQPPGEAIVLTVPGSERSYDLTGLKPGTEYNVTIQGVKGGFPSMPLSAIVTT
notes: FN3 domain
Consider B15, for which, in assay [1], the hCD71 came to 2.74e+06. Besides, in assay [2], the “hCD71:HSA” value worked out at 284.

B16: SEQ ID NO 255 (designed binder)
chain: MLPAPKNLVVSRVTEDSARLSWTAPDAAFDSFDIEYYELIGRGEAIVLTVPGSERSYDLTGLKPGTEYWVGIYGVKGGWLSRPLSAIFTT
notes: FN3 domain
In the case of B16, in assay [1], the hCD71 is 1.84e+06. Besides, the “hCD71:HSA” value in assay [2] was 403.

B17: SEQ ID NO 275 (designed binder)
chain: MLPAPKNLVVSRVTEDSARLSWTAPDAAFDSFLIAYAEVTLHGEAIVLTVPGSERSYDLTGLKPGTEYSVLIHGVKGGRNSDPLSAIFTT
notes: FN3 domain
Consider B17, for which the hCD71 in assay [1] came out at 2.25e+06. Also, the “hCD71:HSA” value in assay [2] came out at 591.

B18: SEQ ID NO 264 (designed binder)
chain: MLPAPKNLVVSRVTEDSARLSWTAPDAAFDSFRIKYQEWWVEGEAIVLTVPGSERSYDLTGLKPGTEYVVQIAGVKGGLSSYPLSAIFTT
notes: FN3 domain
For B18, the hCD71 in assay [1] came out at 2.98e+06. Besides, the “hCD71:HSA” value in assay [2] was 1170.

B19: SEQ ID NO 293 (designed binder)
chain: MLPAPKNLVVSRVTEDSARLSWTAPDAAFDSFTIEYWEFTGSGEAIVLTVPGSERSYDLTGLKPGTEYDVSIYGVKGGWLSYPLSAIFTT
notes: FN3 domain
B19: in assay [1], the hCD71 was 3.59e+06. For the same molecule, the “hCD71:HSA” value in assay [2] amounted to 520.

B20: SEQ ID NO 246 (designed binder)
chain: MLPAPKNLVVSRVTEDSARLSWTAPDAAFDSFTIAYNEQNHYGEAIVLTVPGSERSYDLTGLKPGTEYGVWIEGVKGGTLSWPLSAIFTT
notes: FN3 domain
For the molecule B20, the hCD71 in assay [1] came to 1.57e+06. For the same molecule, in assay [2], the “hCD71:HSA” value was determined as 1120.

B21: SEQ ID NO 282 (designed binder)
chain: MLPAPKNLVVSRVTEDSARLSWTAPDAAFDSFAIVYHEPRPDGEAIVLTVPGSERSYDLTGLKPGTEYEVVILGVKGGVHSYPLSAIFTT
notes: FN3 domain
Turning to B21, the hCD71 in assay [1] came to 3.85e+06. Also, in assay [2], the “hCD71:HSA” value worked out at 206.

B22: SEQ ID NO 298 (designed binder)
chain: MLPAPKNLVVSRVTEDSARLSWTAPDAAFDSFPIAYAEPRPDGEAIVLTVPGSERSYDLTGLKPGTEYSVLIHGVKGGLLSSPLSAISTT
notes: FN3 domain
In the case of B22, the hCD71 in assay [1] came out at 2.51e+06. Moreover, the “hCD71:HSA” value in assay [2] stood at 74.

B23: SEQ ID NO 295 (designed binder)
chain: MLPAPKNLVVSRVTEDSARLSWTAPDAAFDSFFIGYLEPIPSGEAIVLTVPGSERSYDLTGLKPGTEYPVVIQGVKGGHPSQPLSAIFTT
notes: FN3 domain
With B23, the hCD71 in assay [1] amounted to 3.38e+06. Further, in assay [2], the “hCD71:HSA” value stood at 891.

B24: SEQ ID NO 289 (designed binder)
chain: MLPAPKNLVVSRVTEDSARLSWTAPDAAFDSFAIPYYEDTNDGEAIVLTVPGSERSYDLTGLKPGTEYWVSIQGVKGGTVSGPLSAIFTT
notes: FN3 domain
B24: the hCD71 in assay [1] worked out at 2.27e+06. The “hCD71:HSA” value in assay [2] was 1060.

B25: SEQ ID NO 300 (designed binder)
chain: MLPAPKNLVVSRVTEDSARLSWTAPDAAFDSFFIGYLEPQPPGEAIVLTVPGSERSYDLTGLKPGTEYNVTIHGVKGGTPSMPLSAIFTT
notes: FN3 domain
For the molecule B25, the hCD71 in assay [1] came to 2.31e+06. Moreover, the “hCD71:HSA” value in assay [2] stood at 571.

B26: SEQ ID NO 272 (designed binder)
chain: MLPAPKNLVVSRVTEDSARLSWTAPDAAFDSFGIPYAESTPTGEAIVLTVPGSERSYDLTGLKPGTEYSVLIHGVKGGHLSDPLSAIFTT
notes: FN3 domain
For B26, the hCD71 in assay [1] was found to be 1.78e+06. For the same molecule, the “hCD71:HSA” value in assay [2] worked out at 199.

B27: SEQ ID NO 258 (designed binder)
chain: MLPAPKNLVVSRVTEDSARLSWTAPDAAFDSFFIPYAEPSPTGEAIVLTVPGSERSYDLTGLKPGTEYDVWIEGVKGGVLSWPLSAIFTT
notes: FN3 domain
For B27, the hCD71 in assay [1] is 1.04e+06. For the same molecule, the “hCD71:HSA” value in assay [2] amounted to 98.

B28: SEQ ID NO 245 (designed binder)
chain: MLPAPKNLVVSRITEDSARLSWTAPDAAFDSFGIAYNEGDHYGEAIVLTVPGSERSYDLTGLKPGTEYSVWIEGVKGGNLSYPLSAIFTT
notes: FN3 domain
For B28, the hCD71 in assay [1] came to 2.62e+06. For the same molecule, in assay [2], the “hCD71:HSA” value amounted to 903.

B29: SEQ ID NO 265 (designed binder)
chain: MLPAPKNLVVSRVTEDSARLSWTAPDAAFDSFWIYYIETSHQGEAIVLTVPGSERSYDLTGLKPGTEYFVLIKGVKGGYDSVPLSAIFTT
notes: FN3 domain
With B29, in assay [1], the hCD71 was 3.61e+06. Also, the “hCD71:HSA” value in assay [2] was found to be 913.

B30: SEQ ID NO 271 (designed binder)
chain: MLPAPKNLVVSRVTEDSARLSWTAPDAAFDSFYIPYAETRDDGEAIVLTVPGSERSYDLTGLKPGTEYSVLIHGVKGGDLSSPLSAIFTT
notes: FN3 domain
As to B30, the hCD71 in assay [1] is 2.11e+06. In assay [2], the “hCD71:HSA” value was 693.

B31: SEQ ID NO 268 (designed binder)
chain: MLPAPKNLVVSRVTEDSARLSWTAPDAAFDSFTIVYGEAGAFGEAIVLTVPGSERSYDLTGLKPGTEYDVLIEGVKGGNLSWPLSAIFTT
notes: FN3 domain
B31: the hCD71 in assay [1] was 1.6e+06. Further, in assay [2], the “hCD71:HSA” value turned out to be 626.

B32: SEQ ID NO 288 (designed binder)
chain: MLPAPKNLVVSRVTEDSARLSWTAPDAAFDSFLIPYAETSPSGEAIVLTVPGSERSYDLTGLKPGTEYSVLIHGVKGGDYSSPLSAISTT
notes: FN3 domain
As to B32, in assay [1], the hCD71 amounted to 659000. Moreover, the “hCD71:HSA” value in assay [2] stood at 16.

B33: SEQ ID NO 262 (designed binder)
chain: MLPAPKNLVVSRVTEDSARLSWTAPDAAFDSFAIEYFEYTGEGEAIVLTVPGSERSYDLTGLKPGTEYYVGIYGVKGGYLSRPLSAIFTT
notes: FN3 domain
With B33, in assay [1], the hCD71 worked out at 4.38e+06. Also, the “hCD71:HSA” value in assay [2] is 1860.
